Experimental data reported in the supplement of paper PMC5998384.

Assays:
HeLa Kyoto [1] = experiment: solubility in G1/S (NP-40 vs SDS abundance) (log2 ratio); higher = more soluble; details: cell cycle stage: G1/S
HeLa Kyoto [2] = experiment: melting temperature (median over replicates), in situ; higher = more thermally stable
HeLa Kyoto [3] = experiment: solubility change mitosis vs G1/S (difference of NP-40 vs SDS log2 ratios) (log2 ratio difference); higher = more soluble in mitosis
HeLa Kyoto [4] = experiment: thermal stability score vs G1/S (z-score of summed log2 fold changes over temperatures); higher = more thermally stable than in G1/S
[5] = cell cycle stage: early G1 (4.5 h after nocodazole release)
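Wherever melting temperature (median over replicates), in situ is given: HeLa Kyoto cells synchronized by double thymidine or nocodazole block, proteins quantified by TMT10plex mass spectrometry, three independent biological replicates.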
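Wherever solubility change mitosis vs G1/S (difference of NP-40 vs SDS log2 ratios) is given: synchronized HeLa Kyoto cells (double thymidine block for G1/S, nocodazole release for mitosis), protein amounts in NP-40 versus SDS lysates quantified by mass spectrometry, three biological replicates.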
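Wherever solubility in G1/S (NP-40 vs SDS abundance) is given: HeLa Kyoto cells arrested at G1/S by double thymidine block, proteins quantified by TMT10plex mass spectrometry in mild NP-40 versus SDS extracts, three biological replicates.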
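Wherever thermal stability score vs G1/S (z-score of summed log2 fold changes over temperatures) is given: synchronized HeLa Kyoto cells, proteins quantified by TMT10plex mass spectrometry, three biological replicates, mitosis taken 0.5 h after nocodazole release, G1/S directly after double thymidine block.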

Chain of DCK (chain, as listed by the source): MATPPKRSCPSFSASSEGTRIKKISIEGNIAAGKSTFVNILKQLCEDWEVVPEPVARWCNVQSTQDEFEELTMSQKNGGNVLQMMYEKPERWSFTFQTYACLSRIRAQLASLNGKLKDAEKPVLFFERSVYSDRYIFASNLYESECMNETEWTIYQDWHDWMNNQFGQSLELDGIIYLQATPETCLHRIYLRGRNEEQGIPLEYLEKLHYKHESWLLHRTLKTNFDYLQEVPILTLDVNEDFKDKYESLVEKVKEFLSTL

Substance | solubility in G1/S (log2) (HeLa Kyoto [1]) | melting temperature (HeLa Kyoto [2]; cell cycle stage: G1/S) [°C] | melting temperature (HeLa Kyoto [2]; cell cycle stage: mitosis) [°C] | solubility change mitosis (log2) (HeLa Kyoto [3]) | thermal stability score (HeLa Kyoto [4]; [5]) | thermal stability score (HeLa Kyoto [4]; cell cycle stage: mitosis)
MSVVGLDVGSQSCYIAVARAGGIETIANEFSDRCTPSVISFGSKNRTIGVAAKNQQITHANNTVSNFKRFHGRAFNDPFIQKEKENLSYDLVPLKNGGVGIKVMYMGEEHLFSVEQITAMLLTKLKETAENSLKKPVTDCVISVPSFFTDAERRSVLDAAQIVGLNCLRLMNDMTAVALNYGIYKQDLPSLDEKPRIVVFVDMGHSAFQVSACAFNKGKLKVLGTAFDPFLGGKNFDEKLVEHFCAEFKTKYKLDAKSKIRALLRLYQECEKLKKLMSSNSTDLPLNIECFMNDKDVSGKMNRSQFEELCAELLQKIEVPLYSLLEQTHLKVEDVSAVEIVGGATRIPAVKERIAKFFGKDISTTLNADEAVARGCALQCAILSPAFKVREFSVTDAVPFPISLIWNHDSEDTEGVHEVFSRNHAAPFSKVLTFLRRGPFELEAFYSDPQGVPYPEAKIGRFVVQNVSAQKDGEKSRVKVKVRVNTHGIFTISTASMVEKVPTEENEMSSEADMECLNQRPPENPDTDKNVQQDNSEAGTQPQVQTDAQQTSQSPPSPELTSEENKIPDADKANEKKVDQPPEAKKPKIKVVNVELPIEANLVWQLGKDLLNMYIETEGKMIMQDKLEKERNDAKNAVEEYVYEFRDKLCGPYEKFICEQDHQNFLRLLTETEDWLYEEGEDQAKQAYVDKLEELMKIGTPVKVRFQEAEERPKMFEELGQRLQHYAKIAADFRNKDEKYNHIDESEMKKVEKSVNEVMEWMNNVMNAQAKKSLDQDPVVRAQEIKTKIKELNNTCEPVVTQPKPKIESPKLERTPNGPNIDKKEEDLEDKNNFGAEPPHQNGECYPNEKNSVNMDLD [HSPH1] | 0.203 | 50.2 | 49.7 | -0.0593 | 1.34 | 1.52
MYLVAGDRGLAGCGHLLVSLLGLLLLLARSGTRALVCLPCDESKCEEPRNCPGSIVQGVCGCCYTCASQRNESCGGTFGIYGTCDRGLRCVIRPPLNGDSLTEYEAGVCEDENWTDDQLLGFKPCNENLIAGCNIINGKCECNTIRTCSNPFEFPSQDMCLSALKRIEEEKPDCSKARCEVQFSPRCPEDSVLIEGYAPPGECCPLPSRCVCNPAGCLRKVCQPGNLNILVSKASGKPGECCDLYECKPVFGVDCRTVECPPVQQTACPPDSYETQVRLTADGCCTLPTRCECLSGLCGFPVCEVGSTPRIVSRGDGTPGKCCDVFECVNDTKPACVFNNVEYYDGDMFRMDNCRFCRCQGGVAICFTAQCGEINCERYYVPEGECCPVCEDPVYPFNNPAGCYANGLILAHGDRWREDDCTFCQCVNGERHCVATVCGQTCTNPVKVPGECCPVCEEPTIITVDPPACGELSNCTLTGKDCINGFKRDHNGCRTCQCINTEELCSERKQGCTLNCPFGFLTDAQNCEICECRPRPKKCRPIICDKYCPLGLLKNKHGCDICRCKKCPELSCSKICPLGFQQDSHGCLICKCREASASAGPPILSGTCLTVDGHHHKNEESWHDGCRECYCLNGREMCALITCPVPACGNPTIHPGQCCPSCADDFVVQKPELSTPSICHAPGGEYFVEGETWNIDSCTQCTCHSGRVLCETEVCPPLLCQNPSRTQDSCCPQCTDQPFRPSLSRNNSVPNYCKNDEGDIFLAAESWKPDVCTSCICIDSVISCFSESCPSVSCERPVLRKGQCCPYCIEDTIPKKVVCHFSGKAYADEERWDLDSCTHCYCLQGQTLCSTVSCPPLPCVEPINVEGSCCPMCPEMYVPEPTNIPIEKTNHRGEVDLEVPLWPTPSENDIVHLPRDMGHLQVDYRDNRLHPSEDSSLDSIASVVVPIIICLSIIIAFLFINQKKQWIPLLCWYRTPTKPSSLNNQLVSVDCKKGTRVQVDSSQRMLRIAEPDARFSGFYSMQKQNHLQADNFYQTV [CRIM1] | -0.0525 | 53.8 | 54.9 | -0.0635 | -2.44 | -0.713
MEAVAVAAAVGVLLLAGAGGAAGDEAREAAAVRALVARLLGPGPAADFSVSVERALAAKPGLDTYSLGGGGAARVRVRGSTGVAAAAGLHRYLRDFCGCHVAWSGSQLRLPRPLPAVPGELTEATPNRYRYYQNVCTQSYSFVWWDWARWEREIDWMALNGINLALAWSGQEAIWQRVYLALGLTQAEINEFFTGPAFLAWGRMGNLHTWDGPLPPSWHIKQLYLQHRVLDQMRSFGMTPVLPAFAGHVPEAVTRVFPQVNVTKMGSWGHFNCSYSCSFLLAPEDPIFPIIGSLFLRELIKEFGTDHIYGADTFNEMQPPSSEPSYLAAATTAVYEAMTAVDTEAVWLLQGWLFQHQPQFWGPAQIRAVLGAVPRGRLLVLDLFAESQPVYTRTASFQGQPFIWCMLHNFGGNHGLFGALEAVNGGPEAARLFPNSTMVGTGMAPEGISQNEVVYSLMAELGWRKDPVPDLAAWVTSFAARRYGVSHPDAGAAWRLLLRSVYNCSGEACRGHNRSPLVRRPSLQMNTSIWYNRSDVFEAWRLLLTSAPSLATSPAFRYDLLDLTRQAVQELVSLYYEEARSAYLSKELASLLRAGGVLAYELLPALDEVLASDSRFLLGSWLEQARAAAVSEAEADFYEQNSRYQLTLWGPEGNILDYANKQLAGLVANYYTPRWRLFLEALVDSVAQGIPFQQHQFDKNVFQLEQAFVLSKQRYPSQPRGDTVDLAKKIFLKYYPRWVAGSW [NAGLU] | 0.341 | 55.7 | 55.5 | -0.238 | -2.49 | -1.73
MPVVRKIFRRRRGDSESEEDEQDSEEVRLKLEETREVQNLRKRPNGVSAVALLVGEKVQEETTLVDDPFQMKTGGMVDMKKLKERGKDKISEEEDLHLGTSFSAETNRRDEDADMMKYIETELKKRKGIVEHEEQKVKPKNAEDCLYELPENIRVSSAKKTEEMLSNQMLSGIPEVDLGIDAKIKNIISTEDAKARLLAEQQNKKKDSETSFVPTNMAVNYVQHNRFYHEELNAPIRRNKEEPKARPLRVGDTEKPEPERSPPNRKRPANEKATDDYHYEKFKKMNRRY [C9ORF78] | 0.501 | 57.3 | 55.1 | 0.0516 | -2.13 | -4.34
MPSTNRAGSLKDPEIAELFFKEDPEKLFTDLREIGHGSFGAVYFARDVRTNEVVAIKKMSYSGKQSTEKWQDIIKEVKFLQRIKHPNSIEYKGCYLREHTAWLVMEYCLGSASDLLEVHKKPLQEVEIAAITHGALQGLAYLHSHTMIHRDIKAGNILLTEPGQVKLADFGSASMASPANSFVGTPYWMAPEVILAMDEGQYDGKVDVWSLGITCIELAERKPPLFNMNAMSALYHIAQNESPTLQSNEWSDYFRNFVDSCLQKIPQDRPTSEELLKHIFVLRERPETVLIDLIQRTKDAVRELDNLQYRKMKKLLFQEAHNGPAVEAQEEEEEQDHGVGRTGTVNSVGSNQSIPSMSISASSQSSSVNSLPDVSDDKSELDMMEGDHTVMSNSSVIHLKPEEENYREEGDPRTRASDPQSPPQVSRHKSHYRNREHFATIRTASLVTRQMQEHEQDSELREQMSGYKRMRRQHQKQLMTLENKLKAEMDEHRLRLDKDLETQRNNFAAEMEKLIKKHQAAMEKEAKVMSNEEKKFQQHIQAQQKKELNSFLESQKREYKLRKEQLKEELNENQSTPKKEKQEWLSKQKENIQHFQAEEEANLLRRQRQYLELECRRFKRRMLLGRHNLEQDLVREELNKRQTQKDLEHAMLLRQHESMQELEFRHLNTIQKMRCELIRLQHQTELTNQLEYNKRRERELRRKHVMEVRQQPKSLKSKELQIKKQFQDTCKIQTRQYKALRNHLLETTPKSEHKAVLKRLKEEQTRKLAILAEQYDHSINEMLSTQALRLDEAQEAECQVLKMQLQQELELLNAYQSKIKMQAEAQHDRELRELEQRVSLRRALLEQKIEEEMLALQNERTERIRSLLERQAREIEAFDSESMRLGFSNMVLSNLSPEAFSHSYPGASGWSHNPTGGPGPHWGHPMGGPPQAWGHPMQGGPQPWGHPSGPMQGVPRGSSMGVRNSPQALRRTASGGRTEQGMSRSTSVTSQISNGSHMSYT [TAOK1] | 0.0325 | 51.7 | 50.8 | -0.0943 | 0.109 | -0.35
DCK | 0.17 | 53.9 | 53.1 | -0.103 | 2.05 | 2.37
MSGQSLTDRITAAQHSVTGSAVSKTVCKATTHEIMGPKKKHLDYLIQCTNEMNVNIPQLADSLFERTTNSSWVVVFKSLITTHHLMVYGNERFIQYLASRNTLFNLSNFLDKSGLQGYDMSTFIRRYSRYLNEKAVSYRQVAFDFTKVKRGADGVMRTMNTEKLLKTVPIIQNQMDALLDFNVNSNELTNGVINAAFMLLFKDAIRLFAAYNEGIINLLEKYFDMKKNQCKEGLDIYKKFLTRMTRISEFLKVAEQVGIDRGDIPDLSQAPSSLLDALEQHLASLEGKKIKDSTAASRATTLSNAVSSLASTGLSLTKVDEREKQAALEEEQARLKALKEQRLKELAKKPHTSLTTAASPVSTSAGGIMTAPAIDIFSTPSSSNSTSKLPNDLLDLQQPTFHPSVHPMSTASQVASTWGDPFSATVDAVDDAIPSLNPFLTKSSGDVHLSISSDVSTFTTRTPTHEMFVGFTPSPVAQPHPSAGLNVDFESVFGNKSTNVIVDSGGFDELGGLLKPTVASQNQNLPVAKLPPSKLVSDDLDSSLANLVGNLGIGNGTTKNDVNWSQPGEKKLTGGSNWQPKVAPTTAWNAATMAPPVMAYPATTPTGMIGYGIPPQMGSVPVMTQPTLIYSQPVMRPPNPFGPVSGAQIQFM [PICALM] | 0.0523 | 53.7 | 53.1 | -0.0327 | -1.28 | -1.63
MPLNRTLSMSSLPGLEDWEDEFDLENAVLFEVAWEVANKVGGIYTVLQTKAKVTGDEWGDNYFLVGPYTEQGVRTQVELLEAPTPALKRTLDSMNSKGCKVYFGRWLIEGGPLVVLLDVGASAWALERWKGELWDTCNIGVPWYDREANDAVLFGFLTTWFLGEFLAQSEEKPHVVAHFHEWLAGVGLCLCRARRLPVATIFTTHATLLGRYLCAGAVDFYNNLENFNVDKEAGERQIYHRYCMERAAAHCAHVFTTVSQITAIEAQHLLKRKPDIVTPNGLNVKKFSAMHEFQNLHAQSKARIQEFVRGHFYGHLDFNLDKTLYFFIAGRYEFSNKGADVFLEALARLNYLLRVNGSEQTVVAFFIMPARTNNFNVETLKGQAVRKQLWDTANTVKEKFGRKLYESLLVGSLPDMNKMLDKEDFTMMKRAIFATQRQSFPPVCTHNMLDDSSDPILTTIRRIGLFNSSADRVKVIFHPEFLSSTSPLLPVDYEEFVRGCHLGVFPSYYEPWGYTPAECTVMGIPSISTNLSGFGCFMEEHIADPSAYGIYILDRRFRSLDDSCSQLTSFLYSFCQQSRRQRIIQRNRTERLSDLLDWKYLGRYYMSARHMALSKAFPEHFTYEPNEADAAQGYRYPRPASVPPSPSLSRHSSPHQSEDEEDPRNGPLEEDGERYDEDEEAAKDRRNIRAPEWPRRASCTSSTSGSKRNSVDTATSSSLSTPSEPLSPTSSLGEERN [GYS1] | -0.205 | 54.5 | 55.2 | -0.314 | 2.32 | 2.69
MAGKQAVSASGKWLDGIRKWYYNAAGFNKLGLMRDDTIYEDEDVKEAIRRLPENLYNDRMFRIKRALDLNLKHQILPKEQWTKYEEENFYLEPYLKEVIRERKEREEWAKK [UQCRB] | -0.132 | 53.9 | 52.2 | 0.253 | -3.18 | -2.78
